From publication PMC5737516
Residue numbers refer to the chain shown, from its start. Read-outs that look alike come from different tables or passages of the source.

T1: M1BP (UniProt Q9VHM3 1-418)
T1 sequence: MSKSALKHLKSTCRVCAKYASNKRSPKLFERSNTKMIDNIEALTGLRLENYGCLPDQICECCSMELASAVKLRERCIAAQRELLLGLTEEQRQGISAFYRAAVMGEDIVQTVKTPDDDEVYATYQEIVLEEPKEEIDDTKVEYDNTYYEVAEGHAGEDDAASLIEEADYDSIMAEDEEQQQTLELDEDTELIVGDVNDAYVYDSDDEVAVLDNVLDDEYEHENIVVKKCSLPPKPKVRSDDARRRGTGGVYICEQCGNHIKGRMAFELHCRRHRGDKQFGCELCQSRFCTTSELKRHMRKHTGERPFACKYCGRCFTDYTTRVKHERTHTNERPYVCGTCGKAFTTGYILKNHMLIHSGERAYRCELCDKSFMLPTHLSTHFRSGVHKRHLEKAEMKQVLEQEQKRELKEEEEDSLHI

T2: M1BP;TRF2 (Drosophila melanogaster?;Drosophila …, UniProt Q9VHM3;Q9XZD9 1-418;1-632, |)
T2 sequence 1: T1 sequence
T2 sequence 2: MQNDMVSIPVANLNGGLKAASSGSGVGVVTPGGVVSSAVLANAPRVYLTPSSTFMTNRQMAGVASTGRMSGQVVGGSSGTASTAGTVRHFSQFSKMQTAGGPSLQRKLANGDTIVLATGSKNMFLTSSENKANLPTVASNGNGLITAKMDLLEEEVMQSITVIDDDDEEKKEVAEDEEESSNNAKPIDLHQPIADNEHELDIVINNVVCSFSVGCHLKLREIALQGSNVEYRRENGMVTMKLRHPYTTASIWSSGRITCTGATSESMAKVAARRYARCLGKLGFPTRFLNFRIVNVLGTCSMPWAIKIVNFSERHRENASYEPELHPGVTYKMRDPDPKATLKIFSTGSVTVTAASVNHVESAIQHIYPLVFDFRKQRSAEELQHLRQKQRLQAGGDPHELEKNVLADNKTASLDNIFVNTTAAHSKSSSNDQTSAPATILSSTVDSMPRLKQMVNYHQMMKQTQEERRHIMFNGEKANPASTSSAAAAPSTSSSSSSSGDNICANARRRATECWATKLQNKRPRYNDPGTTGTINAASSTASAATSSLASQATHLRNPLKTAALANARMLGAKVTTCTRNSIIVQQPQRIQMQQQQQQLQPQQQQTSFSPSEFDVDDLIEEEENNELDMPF

B1: RpLP1 wtMotif1 (-36 to +14) (dsDNA)
DNA 1: TTCGTCATCGGCGCGGTCACACTGCATATCAACTGCTCTTTCCGGTTTAG
DNA 2: CTAAACCGGAAAGAGCAGTTGATATGCAGTGTGACCGCGCCGATGACGAA
B2: RpLP1 mutMotif1 (-36 to +14) (dsDNA)
DNA 1: B1 DNA 1 with G15C, C20G, C22G
DNA 2: B1 DNA 2 with G29C, G31C, C36G
B3: RpL30 wtMotif1 (-52 to +8) (dsDNA)
DNA 1: CCCGTCGGTCACACCAACACAAACGTGGTACCCATTTCCGCCTGTTCTTCCTCTTTCTTT
DNA 2: AAAGAAAGAGGAAGAACAGGCGGAAATGGGTACCACGTTTGTGTTGGTGTGACCGACGGG
B4: RpL30 mutMotif1 (-52 to +8) (dsDNA)
DNA 1: B3 DNA 1 with G7C, C12G, C14G
DNA 2: B3 DNA 2 with G47C, G49C, C54G

Columns and labels:
Assay in all cases: pull-down
M1BP = target: T1, M1BP
M1BP;TRF2 [1] = target: T2, M1BP;TRF2
M1BP;TRF2 [2] = target: T2, M1BP;TRF2; remark: listed apart in the source

Row | Binder | binding result (M1BP) | binding result (M1BP;TRF2 [1]) | binding result (M1BP;TRF2 [2])
1 | B1 | binds | binds | 
2 | B2 | no binding |  | no binding
3 | B3 | binds | binds | 
4 | B4 | no binding |  | no binding
